Experiment [1] deals with T1, AMU1114 (Homo sapiens (Human), UniProt P0DOX7 1-214).
T1 construct: Complex of a fusion heavy chain (Fab region linked to a prourokinase mutant) and an antibody light chain; F396 of the heavy chain corresponds to F157 of urokinase
Nature of the experiment: assay not named in the sentence (ELISA of FIG. 5 presumably). As for the experimental part: (§1) The concentration of each of the human and mouse urokinase receptors was adjusted with PBS to 1 μg/mL. The resultant solution was dispensed in the wells of a 96-well plate in a volume of 50 μL/well, allowed to stand still at room temperature for 90 minutes to immobilize the receptor. To the plate having the receptor immobilized thereon, TBS-T containing 1% BSA was dispensed in a volume of 300 μL/well. The plate was allowed to stand still at room temperature for 60 minutes to block the plate. To the plate blocked, the sample (mutant) adjusted in concentration to 1000 ng/mL, 111.1 ng/mL or 12.3 ng/mL was added in a volume of 50 μL/well and allowed to react at room temperature for 60 minutes. After washing with TBS-T, HRP-conjugated anti-human Kappa chain antibody (Bethyl) diluted with 1% BSA-containing TBS-T to 1/50,000 fold was dispensed in a volume of 50 μL/well and allowed to react at room temperature for 60 minutes. After washing, a TMB (3,3′,5,5′-tetramethylbenzidine) coloring reagent was allowed to react for 15 minutes. The reaction was terminated with 2N H₂SO₄ (30 μL/well). Absorbance at 450 nm was measured.

For experiment [2], the target named is AMU1114 (Δ22-28, F157E) mutant (Homo sapiens (Human), UniProt P0DOX7 1-214). Nature of the experiment: ELISA, receptor immobilized, detection with HRP anti-human Kappa chain antibody; compared with PBS. As for the experimental part: as §1
Sequence of AMU1114 (Δ22-28, F157E) mutant (P0DOX7 other isoform, or with tags, fused parts or gaps F157E F157E limits assumed, chain 2 of 2, other chains not shown): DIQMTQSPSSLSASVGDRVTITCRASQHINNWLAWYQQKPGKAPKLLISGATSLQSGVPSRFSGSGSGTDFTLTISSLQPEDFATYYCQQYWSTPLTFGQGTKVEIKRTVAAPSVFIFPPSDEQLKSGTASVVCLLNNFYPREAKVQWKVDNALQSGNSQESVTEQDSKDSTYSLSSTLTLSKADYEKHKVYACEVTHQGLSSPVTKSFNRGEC

T1 sequence (P0DOX7 other isoform, or with tags, fused parts or gaps limits assumed, chain 2 of 2, other chains not shown): as the sequence (P0DOX7 other isoform, or with tags, fused parts or gaps F157E F157E limits assumed, chain 2 of 2, other chains not shown) above

B1: mouse urokinase receptor (receptor)
chain: LQCMQCESNQSCLVEECALGQDLCRTTVLREWQDDRELEVVTRGCAHSEKTNRTMSYRMGSMIISLTETVCATNLCNRPRPGARGRAFPQGRYLECASCTSLDQSCERGREQSLQCRYPTEHCIEVVTLQSTERSLKDEDYTRGCGSLPGCPGTAGFHSNQTFHFLKCCNYTHCNGGPVLDLQSFPPNGFQCYSCEGNNTLGCSSEEASLINCRGPMNQCLVATGLDVLGNRSYTVRGCATASWCQGSHVADSFPTHLNVSVSCCHGSGCNSPTGHHHHHH
notes: Immobilized on the plate at 1 µg/mL
With B1, the binding result in experiment [1] and in experiment [2] was “no binding” each time.

For the origin of these results see patent US20260250366A1 (RIN INSTITUTE, published 2026).
